US20150218578

Test system: T1, OsMYB55 (Oryza sativa)
T1 sequence: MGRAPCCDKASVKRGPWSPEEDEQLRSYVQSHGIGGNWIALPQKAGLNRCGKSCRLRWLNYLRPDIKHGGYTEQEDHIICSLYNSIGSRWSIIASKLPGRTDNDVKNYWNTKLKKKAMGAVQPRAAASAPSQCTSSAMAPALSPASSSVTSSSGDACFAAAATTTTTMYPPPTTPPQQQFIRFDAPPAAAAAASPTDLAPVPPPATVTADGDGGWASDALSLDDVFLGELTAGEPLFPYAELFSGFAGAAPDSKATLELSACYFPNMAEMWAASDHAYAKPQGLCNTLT
Assay: cell_activity
Settings: GUS transactivation in tobacco leaf vs empty vector; almost eight-fold

In the case of OsGAD3 promoter 1.5-2 kb (GUS reporter), the activity is reported as 8 fold.
With OsGAT1 promoter 1.5-2 kb (GUS reporter) the activity was 8 fold.
Substance “OsGS1;2 promoter 1.5-2 kb (GUS reporter)” has an activity of 8 fold.
